According to patent US20180291110A1 (Hoffmann-La Roche, published 2018):
One block for each binder: values may come before it.

Tests used:
[1] = molecular target: T1, Her2 ECD (amino acids 1 to 629 of matured HER2 with C-terminal avi-tag and His-tag) (human, UniProt P04626 23-652); experiment: SPR, antibody captured, Her2 analyte; N/A in Table 18
T1 construct: also called purified Her2

[2] = molecular target: T2, cynomolgus transferrin receptor on CHO-K1 cells (cynomolgus, UniProt H9EXL1 1-760 (rhesus entry)); experiment: FACS, cyTfR-CHO against hTfR-CHO
T2 construct: whole, on cells; also called cyTfR; Cyno TfR-CHO

[3] = molecular target: T3, human transferrin receptor (recombinant, for surface plasmon resonance) (human, UniProt P02786 89-760); experiment: BIAcore
T3 construct: also called huTfR; human transferrin receptor-biotinylated

[4] = molecular target: T4, cynomolgus transferrin receptor (recombinant, for surface plasmon resonance) (cynomolgus); experiment: BIAcore
T4 chain: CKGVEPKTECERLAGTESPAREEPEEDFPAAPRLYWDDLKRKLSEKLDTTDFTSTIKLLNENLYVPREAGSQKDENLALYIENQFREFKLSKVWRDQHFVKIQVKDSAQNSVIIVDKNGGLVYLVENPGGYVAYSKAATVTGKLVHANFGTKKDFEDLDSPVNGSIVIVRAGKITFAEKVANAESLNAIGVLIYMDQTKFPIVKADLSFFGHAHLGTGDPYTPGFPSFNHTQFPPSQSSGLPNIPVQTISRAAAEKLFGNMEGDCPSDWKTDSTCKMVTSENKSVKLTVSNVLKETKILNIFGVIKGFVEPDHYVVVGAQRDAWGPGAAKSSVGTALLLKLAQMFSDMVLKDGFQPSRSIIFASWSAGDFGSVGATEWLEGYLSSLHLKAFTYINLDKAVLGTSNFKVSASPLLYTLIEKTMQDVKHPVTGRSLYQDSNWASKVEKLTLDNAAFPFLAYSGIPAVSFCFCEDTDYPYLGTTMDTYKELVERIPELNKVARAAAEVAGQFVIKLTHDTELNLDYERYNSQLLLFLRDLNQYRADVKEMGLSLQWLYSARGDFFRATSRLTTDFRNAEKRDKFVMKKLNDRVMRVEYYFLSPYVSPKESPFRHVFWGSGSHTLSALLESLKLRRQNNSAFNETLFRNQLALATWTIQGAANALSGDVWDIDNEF

[5] = molecular target: T2, cynomolgus transferrin receptor on …; experiment: FACS, cyTfR-CHO
[6] = molecular target: T3, human transferrin receptor …; experiment: BIAcore, huTfR against cyTfR
[7] = molecular target: T5, human transferrin receptor on CHO-K1 cells (human, UniProt P02786 1-760); experiment: FACS, hTfR-CHO
T5 construct: whole, on cells; also called hTfR-CHO

binding result [1]: no binding (tested: 300 nM)
B1: Trastuzumab HC x Pertuzumab (Tras.Y91H) LC (antibody, V domains shown)
VH: not shown
VL: DIQMTQSPSSLSASVGDRVTITCKASQDVSIGVAWYQQKPGKAPKLLIYSASYRYTGVPSRFSGSGSGTDFTLTISSLQPEDFATYYCQQHYIYPYTFGQGTKVEIK
notes: human IgG

ratio EC50 Cyno/human [2]: 0.9
ratio max Cyno/human [2]: 1
koff [3]: 0.000616 s⁻¹
t1/2 [3]: 19 min
koff [4]: 0.000277 s⁻¹
t1/2 [4]: 42 min
EC50 [5]: 0.241 µg/mL
ratio t1/2 human/Cyno [6]: 0.4
EC50 [7]: 0.275 µg/mL
B2: Rabbit anti-transferrin antibody clone 2/99 (antibody, V domains shown)
VH: QSMEESGGRLVTPGTPLTLTCTVSGFSLSSYAMSWVRQAPGKGLEWIGYIWSGGSTDYASWAKGRFTISKTSTTVDLKITSPTTEDTATYFCARRYGTSYPDYGDANGFDPWGPGTLVTVSS
VL: AYDMTQTPASVEVAVGGTVTIKCQASQSISSYLSWYQQKPGQRPKLLIYRASTLASGVSSRFKGSGSGTQFTLTISGVECADAATYYCQQCYSSSNVDNTFGGGTEVVVKR
notes: also called antibody 2/99
